Assay results from the nanobody polyreactivity screen of Harvey et al. (2022).

Experiment: yeast display, Sf9 membrane polyspecificity reagent, FACS + sequencing; frameworks hold sequencing errors
In short: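 A nanobody's polyreactivity label depends on the gate it was sorted from. Yeast display cells were stained with 10% biotinylated, detergent-solubilized Sf9 membrane reagent for 1 hour at 4 °C, enriched on streptavidin microbeads and sorted by FACS. The low and high (top ~1%) gates were set on anti-HA fluorescence for expression and streptavidin fluorescence for reagent binding.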

Sequence: QVQLVESGGGLVQAGGSLRFSCAASGSTFGTYAMGWYRQAPGKERELVAAITSGGSTDYADSVKGRFTISRDNAKNTVYLQMNSLKPEDTAVYYCNATWELLSYYYLFWGYDYWGQGTQVTVSS
- polyreactivity (PSR sort gate): low polyreactivity

Sequence: QVQLVESGGGLVQAGGSLRFSCAASGSTFTTNVMGWYRQAPGKERELVAAISWSSGSTYYADSVKGRFTISRDNAKNTVYLQMNSLKPEDTAVYYCAARLVIFYPYSRYYYWGQGTQVTVSS
- polyreactivity (PSR sort gate): high polyreactivity

Sequence: QVQLVESGGGLVQAGGSLRFSCAASGYTVGDYAMGSYRQAPGKERELVAVITRNGGRTYYADSVKGRFTISRDNAKNTVYLQMNSLKPEDTAVYYCNRDTSIRHYNYWGQGTQVTVSS
- polyreactivity (PSR sort gate): high polyreactivity

Sequence: QVQLVESGGGLVQAGGSLRFSCAASVFTFYSYAMGSDSQSPGKESEFVAAINQTSGSTTYADSVKGRFTISRDYGKNTVYLKMISLKPEDTAVYYCNAYQYYERYDTYLFRYDYWGQGTQVTVSS
- polyreactivity (PSR sort gate): low polyreactivity

Sequence: QVQLVESGGGLVQAGGSLRFSCAYSGRTFFGYAMGWYRQAPGKERELVAAITSAGGRTYYADSVKGRYTISRDNAKNTVYLQMNSLKPEYTAVYYCAATRWYYGLSAFDSWGQGTQVTVSS
- polyreactivity (PSR sort gate): high polyreactivity

Sequence: QVQLVESGGGLVQAGGSLRFSCVASGSIFRGNAKGWYRQAPGKERELVASISKGGGSTYYADSVKGRFLISRDNAKNTVYLQMNSLKPEDTAVYYCAARGGLDGIQYDYDYWGQGTQVTVSS
- polyreactivity (PSR sort gate): low polyreactivity

Sequence: QVQLVESGGGLVQAGGSLRIICAASGRTFRGYAMGWYRQAPGKERELVAAITSGGSTNYADSVKGRFTISRDNAKNTVYLQMHSLKPEDTAVYYCNRDTSKYGLWRYIYDYWGQGTQVTVSS
- polyreactivity (PSR sort gate): low polyreactivity

Sequence: QVQLVESGGGLVQAGGSLRIICAASGRTFSYYAMGWYRQAPGKERELVAVITSSGGSTSYADSVKGRFTISRDNAKNTVYLQMKSLKPEDTAVYYCAADPLAVSWAYYLFGVDYWGHGTQVTVSS
- polyreactivity (PSR sort gate): high polyreactivity

Sequence: QVQLVESGGGLVQAGGSLRIRCAASGSIFWYNAMGWYRQAPGKERELVAAISYRGGSTYYADSVKGRFTISRDNAKNTVYLQMNSLKPEDTAVYYCAAEYGDVYVWTYDYWGQGTQVTVSS
- polyreactivity (PSR sort gate): high polyreactivity

Sequence: QVQLVESGGGLVQAGGSLRISCAASASIFPQYALGWYRQAPGKERELVAGISGSGGGTYYADSVKGRFTISRDNAKNTVSVQIHSLKPEDTAVYYCYDYWRQGTQVTVSS
- polyreactivity (PSR sort gate): low polyreactivity

Sequence: QVQLVESGGGLVQAGGSLRISCAASDAMGWYRQAPGKERELVASISNGVSTNYADSVKGRFTISRDNAKNTVYLQMNSLKPEDTAVYYCAADAKTVGRDDLYWYEVEFDYWGQGTQVNVSS
- polyreactivity (PSR sort gate): low polyreactivity

Sequence: QVQLVESGGGLVQAGGSLRISCAASGFAFSYYAMGWYRQAPGKEREFVASIDWSGGSTYYADSVKGRFTISRDNAKNTVYLQMNSLKPEDTAVYYCAAELDYFPGYDYWGQGTQVTVSS
- polyreactivity (PSR sort gate): low polyreactivity

Sequence: QVQLVESGGGLVQAGGSLRISCAASGFIFEQYAMGWYRQAPGKERELVARISWRGGSTYYADSVKGRFTISRDNAKNTVYLQMNSLKPEDTAVYYCAADVYTRFWRVYRFDYWGQGTQVTVSS
- polyreactivity (PSR sort gate): low polyreactivity

Sequence: QVQLVESGGGLVQAGGSLRISCAASGFIFKVYAMGWYRQAPGKERELVAAITSSGGSTYYADSVKGRFTISRDNAKNTVYLQMNSLIPEDTAVYYCAAQFPGVYYYIYDYWGQGTQVTVSS
- polyreactivity (PSR sort gate): high polyreactivity

Sequence: QVQLVESGGGLVQAGGSLRISCAASGFIFVTYAMGWYRQAPGKERELVAAITNSGGTTYYADSVKGRFTISRDNAKNTVYLQMNSLKPEDTAVYYCNKPYGAETAHREFDYWGQGTQVTVSS
- polyreactivity (PSR sort gate): low polyreactivity

Sequence: QVQLVESGGGLVQAGGSLRISCAASGFTFDTNAMGWYRQAPGKERELVAAISRIGGRTYADSVKGRFTISRDNAKNTVYLQMNSLKPEDTAVYYCADDRSSAYRWRSAGYYKYDYWGQGTQVTVSS
- polyreactivity (PSR sort gate): low polyreactivity

Sequence: QVQLVESGGGLVQAGGSLRISCAASGFTFKAYAMGWYRLAPGKERELVAAITKSGGRTFYADSVKGRFTISRDNAKNTVYLQMNSLKPEDTAVYYCAASYTVYYWGQGTQVTVSS
- polyreactivity (PSR sort gate): high polyreactivity
